Reference: patent EP1736482A1
Blank lines part the entries; values can stand above or below the substance they belong to.

Columns and labels:
[1] = biological target: recombinant human 4-1BB-Fc chimera (R&D Systems) (human) (UniProt Q07011); experiment: SPR (BIAcore 2000), 4-1BB-Fc coupled to CM5 chip, ligand in flow, 25°C
[2] = biological target: 4-1BB on CD3-stimulated human T lymphocytes (PBMC) (human) (UniProt Q07011); experiment: flow cytometry on CD3-stimulated PBMC, PE-conjugated antibody
Sequence of 4-1BB on CD3-stimulated human T lymphocytes (PBMC) (human) (Q07011 24-255): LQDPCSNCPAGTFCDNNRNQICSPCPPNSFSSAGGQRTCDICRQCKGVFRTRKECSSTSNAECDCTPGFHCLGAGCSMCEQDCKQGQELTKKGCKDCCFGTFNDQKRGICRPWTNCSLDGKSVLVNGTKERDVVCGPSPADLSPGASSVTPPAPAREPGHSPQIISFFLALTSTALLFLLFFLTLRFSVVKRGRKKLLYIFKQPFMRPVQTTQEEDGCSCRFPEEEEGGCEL

[3] = biological target: 4-1BB on CD3-stimulated human T lymphocytes (PBMC) (human) (UniProt Q07011); experiment: cell-based or functional assay
[4] = biological target: 4-1BB on CD3-stimulated human T lymphocytes (PBMC) (human) (UniProt Q07011); experiment: flow cytometry on CD3-stimulated PBMC, ligand at 10 µg/ml revealed by PE-conjugated streptavidine

Sequence of recombinant human 4-1BB-Fc chimera (R&D Systems) (human) (Q07011 24-186, change not shown): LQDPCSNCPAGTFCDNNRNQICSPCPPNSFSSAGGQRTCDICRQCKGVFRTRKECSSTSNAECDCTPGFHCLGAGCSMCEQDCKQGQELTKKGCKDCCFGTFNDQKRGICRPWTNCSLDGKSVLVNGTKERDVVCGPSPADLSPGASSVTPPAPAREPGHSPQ

Kd [1]: 2.3 nM
koff [1]: 0.00052 s⁻¹
kon [1]: 230000 M⁻¹ s⁻¹
Substance: C51S AviTag-4-1BBL (from UniProt P41273 50-254) (ligand)

percentage of 4-1BB positive activated T cells stained [2]: 64%
Substance: PE-conjugated anti 4-1BB mAb (clone 4B4-1, BD Biosciences) (antibody)

inhibition of the proliferation of CD3-stimulated PBMC (tritiated thymidine incorporation) [3]: 70%
percentage of 4-1BB positive activated T cells stained [4]: 60%
Substance: WT AviTag-4-1BBL (trimeric recombinant human 4-1BBL extracellular domain with N-terminal AviTag, produced in E. coli and refolded) (from UniProt P41273 50-254) (ligand)
